Each block holds one molecule with its values, some of them ahead of it.
Tests used:
[1] = biological target: PTP-σ_D1D2 (human), Trx-His6-tagged (human); assay: ITC; VP-ITC at 25 °C; 50 mM Tris-HCl pH 7.5, 100 mM NaCl, 1 mM EDTA, 1 mM DTT; liprin-α fragments at 200 μM injected into LAR-RPTP fragments at 20 μM; one-site binding model; N-terminal tags kept
[2] = biological target: PTP-δ_D1D2 (human), Trx-His6-tagged (human); assay: as above
[3] = biological target: T1, liprin-α2_SAM123 (C-terminal SAM repeats of human liprin-α2), Trx-His6-tagged (human, UniProt O75334 866-1193); assay: as above; details: both partners purified
T1 construct: liprin-α2, human, the C-terminal three SAM domains (SAM123); source: E. coli Rosetta BL21(DE3), purified (Ni-NTA, Superdex-200); not shown: Trx, N-terminal, kept; His6, N-terminal, kept

[4] = biological target: the molecule itself; assay: cell-based or functional assay

T1 sequence (O75334 866-1193): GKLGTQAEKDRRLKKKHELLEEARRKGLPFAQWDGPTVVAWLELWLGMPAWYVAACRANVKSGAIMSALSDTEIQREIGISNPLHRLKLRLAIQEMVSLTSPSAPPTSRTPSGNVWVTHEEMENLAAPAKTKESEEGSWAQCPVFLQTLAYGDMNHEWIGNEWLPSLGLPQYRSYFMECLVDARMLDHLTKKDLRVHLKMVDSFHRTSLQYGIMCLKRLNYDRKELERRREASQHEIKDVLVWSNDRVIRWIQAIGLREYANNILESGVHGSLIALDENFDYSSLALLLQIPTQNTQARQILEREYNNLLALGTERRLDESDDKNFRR
PTP-δ_D1D2 (human), Trx-His6-tagged (human), sequence (P23468 1357-1912, stated change not applied): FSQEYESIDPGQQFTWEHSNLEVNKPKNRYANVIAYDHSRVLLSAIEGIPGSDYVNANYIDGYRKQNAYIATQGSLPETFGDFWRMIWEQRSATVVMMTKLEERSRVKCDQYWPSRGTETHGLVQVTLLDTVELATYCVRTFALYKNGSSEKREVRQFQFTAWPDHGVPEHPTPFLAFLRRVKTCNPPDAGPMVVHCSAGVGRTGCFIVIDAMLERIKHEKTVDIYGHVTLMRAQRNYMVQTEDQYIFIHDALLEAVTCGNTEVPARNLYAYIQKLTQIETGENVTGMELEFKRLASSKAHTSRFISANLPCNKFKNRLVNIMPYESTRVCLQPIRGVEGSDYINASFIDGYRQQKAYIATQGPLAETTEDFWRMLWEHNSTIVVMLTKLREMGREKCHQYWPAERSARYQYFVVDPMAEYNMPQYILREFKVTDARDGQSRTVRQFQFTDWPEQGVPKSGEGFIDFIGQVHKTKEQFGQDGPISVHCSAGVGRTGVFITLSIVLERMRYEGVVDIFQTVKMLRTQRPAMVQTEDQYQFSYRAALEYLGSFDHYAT
PTP-σ_D1D2 (human), Trx-His6-tagged (human), sequence (Q13332 1393-1948): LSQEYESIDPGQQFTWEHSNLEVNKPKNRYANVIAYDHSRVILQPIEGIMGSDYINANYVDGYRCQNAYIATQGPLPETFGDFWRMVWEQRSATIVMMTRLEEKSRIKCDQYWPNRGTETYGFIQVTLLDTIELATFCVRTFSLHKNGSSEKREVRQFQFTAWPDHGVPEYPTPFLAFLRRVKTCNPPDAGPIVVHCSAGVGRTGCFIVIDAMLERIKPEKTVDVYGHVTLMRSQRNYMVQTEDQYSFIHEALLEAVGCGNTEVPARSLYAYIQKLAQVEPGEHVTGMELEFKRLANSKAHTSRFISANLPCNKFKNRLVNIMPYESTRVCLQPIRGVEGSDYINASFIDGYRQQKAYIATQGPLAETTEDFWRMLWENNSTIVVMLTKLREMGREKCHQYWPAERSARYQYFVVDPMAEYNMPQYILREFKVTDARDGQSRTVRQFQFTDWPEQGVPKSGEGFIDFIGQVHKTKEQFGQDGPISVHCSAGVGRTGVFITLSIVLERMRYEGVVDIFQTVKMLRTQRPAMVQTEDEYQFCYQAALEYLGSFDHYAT

Kd [1]: 2400 nM
Kd [2]: 6.4 µM
Molecule: α2_SAM123ΔInsertion (liprin-α2_SAM123 with the insertion loop connecting SAM1 and SAM2 deleted) (from UniProt O75334 866-1193) (domain or fragment)

Kd [3]: 14 ± 1 µM
B1: LAR_D2 (D2 domain of human LAR), His6-SUMO-tagged (domain or fragment, UniProt P10586 1620-1907, looked up)
chain: LYAHIQKLGQVPPGESVTAMELEFKLLASSKAHTSRFISANLPCNKFKNRLVNIMPYELTRVCLQPIRGVEGSDYINASFLDGYRQQKAYIATQGPLAESTEDFWRMLWEHNSTIIVMLTKLREMGREKCHQYWPAERSARYQYFVVDPMAEYNMPQYILREFKVTDARDGQSRTIRQFQFTDWPEQGVPKTGEGFIDFIGQVHKTKEQFGQDGPITVHCSAGVGRTGVFITLSIVLERMRYEGVVDMFQTVKTLRTQRPAMVQTEDQYQLCYRAALEYLGSFDHYAT
notes: also called D2 domain alone; source: E. coli Rosetta BL21(DE3), purified (Ni-NTA, Superdex-200); not shown: His6, N-terminal, kept; SUMO, N-terminal, kept

B2: LAR_D1D2 L1539C/T1593C double-cysteine mutant (domain or fragment, human)
chain: IPITDLADNIERLKANDGLKFSQEYESIDPGQQFTWENSNLEVNKPKNRYANVIAYDHSRVILTSIDGVPGSDYINANYIDGYRKQNAYIATQGPLPETMGDFWRMVWEQRTATVVMMTRLEEKSRVKCDQYWPARGTETCGLIQVTLLDTVELATYTVRTFALHKSGSSEKRELRQFQFMAWPDHGVPEYPTPILAFLRRVKACNPCDAGPMVVHCSAGVGRTGCFIVIDAMLERMKHEKTVDIYGHVTCMRSQRNYMVQCEDQYVFIHEALLEAATCGHTEVPARNLYAHIQKLGQVPPGESVTAMELEFKLLASSKAHTSRFISANLPCNKFKNRLVNIMPYELTRVCLQPIRGVEGSDYINASFLDGYRQQKAYIATQGPLAESTEDFWRMLWEHNSTIIVMLTKLREMGREKCHQYWPAERSARYQYFVVDPMAEYNMPQYILREFKVTDARDGQSRTIRQFQFTDWPEQGVPKTGEGFIDFIGQVHKTKEQFGQDGPITVHCSAGVGRTGVFITLSIVLERMRYEGVVDMFQTVKTLRTQRPAMVQTEDQYQLCYRAALEYLGSFDHYAT
modifications: intermolecular disulfide bridges between the introduced cysteines (without reducing reagents)
in vitro phosphatase activity of the LAR_D1D2 dimer relative to the monomer fraction, with 2 mM DTT in the reaction buffer [4]: ~80%
in vitro phosphatase activity of the disulfide-linked LAR_D1D2 dimer relative to the monomeric mutant, reaction buffer without DTT [4]: ~40%
